{"source": "paper PMC12524980", "target": "PpiC of E. faecium (mature PpiC, residues 25–336) (E. faecium)", "assay": "SEC-MALS; SEC coupled to light scattering (SEC-LS); 500 micrograms loaded on Superdex 200 increase 10/300 GL (PpiC) or Superdex 75 increase 10/300 GL (PpiC^ΔC); 50 mM Tris-HCl, 150 mM NaCl, 5% glycerol, pH 7.8; 0.5 mL/min"}
{"substance": "PpiC of E. faecium (mature PpiC, residues 25–336) (enzyme)", "values": [{"measurement": "stoichiometry N", "value": 2}]}
